Entries after “also recorded” stand apart in the source; their conditions may differ. Read-outs that look alike come from different tables or passages of the source.
How the values were obtained:
β2AR-365:Gs complex [1] = target: T1, β2AR-365:Gs complex (UniProt P04896+P07550, E27Q/G16R/N187E); test: analytical gel filtration: effect of nucleotide analogs on the R:G complex; format: biochemical; settings: for effect of nucleotides on the β2AR:Gs complex: 0.1 mM (FIG. 3A); for effect of phosphates resembling nucleotide phosphate groups on the complex: 5 mM
T1 construct: A β2AR construct truncated after residue 365; Flag (M1); made in house; host or cells: High 5 insect cells (Gs subunits)
Protocol: FIGS. 3A-3G: Effect of nucleotide analogs, pH, and nanobodies on the stability of the β2AR:Gs complex. […] FIG. 3C, The pH limit was determined to guide the preparation of crystallization screens. For the same purpose the effect of ionic strength (data not shown) was determined using NaCl at various concentrations.
To maintain the high-affinity nucleotide-free state of the complex, apyrase (25 mU/ml, NEB) was added after 90 min to hydrolyze residual GDP released from Gαs upon binding to the receptor.

β2AR-365:Gs complex [2] = target: T1, β2AR-365:Gs complex; test: analytical gel filtration: stability of the R:G complex in detergents; settings: for stability of the R:G complex in detergent: 48 hrs at 4° C.
Protocol: (§1) FIG. 4: Stabilizing effect of MNG-3 on the R:G complex. Panel a) Analytical gel filtration of β2AR-365:Gs complexes purified in DDM (in black), MNG-3 (in blue), or two MNG-3 analogs (in red and green) following incubation for 48 hrs at 4° C. In contrast to DDM the R:G complexes are stable in the MNG detergents. Panel b) Effect of diluting unliganded purified β2AR in DDM or MNG-3 below the critical micelle concentration (CMC) of the detergent as assayed by 3H-dihydro alprenolol (3H-DHA) saturation binding.
One challenge for crystallogenesis was to prepare a stable β2AR:Gs complex in detergent solution. The β2AR and Gs couple efficiently in lipid bilayers, but not in detergents used to solubilize and purify these proteins (Example 1). […] Apyrase, a non-selective purine pyrophosphatase, was added to hydrolyze GDP released from Gs on forming a complex with the β2AR. The complex was subsequently purified by sequential antibody affinity chromatography and size exclusion chromatography. The stability of the complex was enhanced by exchanging it into a recently developed maltose neopentyl glycol detergent (NG-310, Anatrace) (Chae et al., 2010).

unliganded purified β2AR = target: T2, unliganded purified β2AR (Homo sapiens, UniProt P07550); test: 3H-DHA saturation binding after dilution of detergent below the CMC; settings: diluted 1000-fold below the CMC; DDM after 20 sec, MNG-3 after 24 hrs
T2 construct: made in house
Protocol: as §1

[3] = target: T3, AVP:NT4LV2R:Gs complex (Arginine vasopressin receptor 2) (Homo sapiens, UniProt P30518); test: SEC stability of the AVP:NT4LV2R:Gs complex; format: biochemical
T3 construct: The N-terminally fused T4L V2R construct (NT4L-V2R); His tag (only implied by nickel-NTA purification of the receptor); made in house; host or cells: Sf9 (NT4L-V2R); High 5 (Gs); E. coli WK6 (Nb35)
Protocol: Arginine vasopressin (AVP), also known as vasopressin, argipressin or antidiuretic hormone, is a natural ligand that activates Arginine vasopressin receptor 2.
Formation of a stable complex (FIG. 19, Panel a) was accomplished by mixing His tagged Gs heterotrimer at approximately 90 μM concentration with AVP bound NT4LV2R (90 μM) and NB35 (100 μM) in 0.1 ml buffer (10 mM HEPES, pH 7.5, 100 mM NaCl, 0.1% DDM, 1 mM EDTA, 3 mM MgCl2, 10 μM AVP) and incubated for 2 hours at room temperature. Next, the AVP:NT4LV2R:Gs complex was purified in two successive affinity purification steps. The purification was monitored by SDS-PAGE (FIG. 19). First, the complex was applied on a Ni-NTA column after adding 300 μl of 1% MNG in 10 mM HEPES, pH 7.5, 100 mM NaCl buffer onto the reaction mix. Following extensive washing with buffer, the complex was eluted in 0.2% MNG, 10 mM HEPES, pH 7.5, 100 mM NaCl AVP 10 μM with 200 mM imidazole. Next the complex was applied on a FLAG-tag affinity column, washed extensively in the same buffer containing 0.01% MNG and eluted with the FLAG-peptide. […] This complex was further purified by SEC on a superdex200 column in 10 mM HEPES, pH 7.5, 100 mM NaCl, 0.01% MNG, 1 mM EDTA, 3 mM MgCl2, 1 μM AVP). […]

β2AR:Gs:BI167107 complex = test: analytical size exclusion chromatography of the ternary complex in the presence and absence of GTPγS; format: biochemical, human β2AR; bovine Gαs, rat Gβ1, rat Gγ2
Protocol: The mutual effects of Nbs and the non-hydrolyzable GTP analog GTPγS on the integrity of the agonist:β2AR:Gs ternary complex was analyzed by analytical size exclusion chromatography in the presence and absence of GTPγS.

[4] = target: T4, purified Gsαβγ heterotrimer (UniProt P04896+P54311); test: Bodipy-GTPγS-FL fluorescence nucleotide binding assay on Gs heterotrimer; format: biochemical, bovine Gαs, rat Gβ1, rat Gγ2; settings: 100 nM Bodipy-GTPγS-FL, 1 μM purified Gsαβγ heterotrimer, increasing concentrations of nanobody
T4 construct: made in house; host or cells: High 5 insect cells
Protocol: (§2) To investigate the effect of nanobodies (Nb35 and Nb37) on Gs alone, nanobodies were added together with bodipy-GTPγS-FL and various Gs protein preparations in 20 mM Tris-HCl, Ph 8.0, 3 mM MgCl2, 1 mM DTT in a final volume of 200 μL. Samples containing a heterotrimeric Gs protein also included 0.1% DDM. Bodipy-GTPγS-FL is a stable fluorescent GTP analog (λex≈470 nm, λem≈515 nm). Its fluorescence intensity increases upon G protein binding and Bodipy-GTPγS-FL can therefore be used for real-time measurements of nucleotide binding to G proteins (McEwen et al., 2001). Fluorescence was measured in a 96-well microtiter plate format on a M5 fluorescence plate reader (Molecular […]).
In another experiment (FIG. 18), increasing amounts of Nb35 were incubated with 1 μM of the purified Gs αβγ heterotrimer and 100 nM Bodipy-GTPγS-FL.

purified Gαs = target: T5, purified Gαs (Bos taurus, UniProt P04896); test: Bodipy-GTPγS-FL fluorescence nucleotide binding assay on Gαs; format: biochemical, Bovine; settings: 100 nM Bodipy-GTPγS-FL, 1 μM purified Gαs, increasing concentrations of nanobody, 300 seconds
T5 construct: made in house
Protocol: as §2
In a first experiment (FIG. 16), increasing amounts of Nb37 were incubated with 1 μM purified GαS and 100 nM Bodipy-GTPγS-FL and the fluorescence increase was measured on a short time scale (300 seconds) to minimize the accumulation of the hydrolysis product bodipy-phosphate (Jameson et al., 2005). The Gαs subunit of the heterotrimeric Gs protein was purified as described previously (Sunahara et al., 1997). […] In a similar experiment (FIG. 17), increasing amounts of Nb35 were incubated with 1 μM purified GαS and 100 nM Bodipy-GTPγS-FL.

[5] = test system: β2AR:Gs:BI167107 ternary complex; test: analytical gel filtration (size exclusion chromatography) of nanobody binding to the ternary complex; parameters: species or system human β2AR; bovine Gαs, rat Gβ1, rat Gγ2; settings: for epitope on the Gs heterotrimer relative to Nb37 (size exclusion chromatography): forms R:G:Nb:Nb37 complex

CC(C)NCC(O)c1ccc(O)c(O)c1 (stereo not shown) [isoproterenol]
effect of M96T and M98T receptor mutations on ligand affinity (T4L-β2AR): two-fold decrease in affinity

CCCc1ccccc1OCC(O)CNC(C)C (stereo not shown) [^3H-dihydro-alprenolol]
effect of M96T and M98T receptor mutations on ligand affinity (T4L-β2AR; data not shown): did not affect ligand binding affinity

Nc1nc2c(ncn2[C@@H]2O[C@H](COP(=O)(O)OP(=O)(O)OP(=O)(O)O)[C@@H](O)[C@H]2O)c(=O)[nH]1 [GTP, guanosine triphosphate]
effect of nucleotides on the β2AR:Gs complex (β2AR-365:Gs complex [1]): disrupt the β2AR:Gs complex

O=P(O)(O)OP(=O)(O)O [pyrophosphate]
effect of phosphates resembling nucleotide phosphate groups on the complex (β2AR-365:Gs complex [1]): did not cause disruption of the complex

CCCCCCCCCCCCO[C@@H]1O[C@H](CO)[C@@H](O[C@H]2O[C@H](CO)[C@@H](O)[C@H](O)[C@H]2O)[C@H](O)[C@H]1O [DDM, n-Dodecyl-β-D-maltoside]
stability of the R:G complex in detergent (β2AR-365:Gs complex [2]): significant dissociation | 3H-DHA binding of β2AR after dilution of detergent (unliganded purified β2AR): loss in 3H-DHA binding

O=C(O)P(=O)(O)O [forcarnet]
effect of phosphates resembling nucleotide phosphate groups on the complex (β2AR-365:Gs complex [1]): did not cause disruption of the complex

Nc1nc2c(ncn2[C@@H]2O[C@H](COP(=O)(O)OP(=O)(O)OP(O)(O)=S)[C@@H](O)[C@H]2O)c(=O)[nH]1 [GTPγS]
effect of nucleotides on the β2AR:Gs complex (β2AR-365:Gs complex [1]): causes dissociation of the β2AR-365:Gs complex

Nc1nc2c(ncn2[C@@H]2O[C@H](COP(=O)(O)OP(=O)(O)O)[C@@H](O)[C@H]2O)c(=O)[nH]1 [GDP, guanosine diphosphate]
effect of nucleotides on the β2AR:Gs complex (β2AR-365:Gs complex [1]): disrupt the β2AR:Gs complex; also recorded: causes dissociation of the β2AR-365:Gs complex

CCOc1ccc2c(c1)C1(CCC(OCCN3CCOCC3)CC1)C(=O)N2S(=O)(=O)c1ccc(C(=O)NC(C)(C)C)cc1OC (stereo not shown) [SR121463, reference compound]
effect of antagonist on the AVP:NT4LV2R:Gs complex ([3]; 10 μM): disrupts the AVP:NT4LV2R:Gs complex

CCCCCCCCCCC(CCCCCCCCCC)(CO[C@@H]1O[C@H](CO)[C@@H](O[C@H]2O[C@H](CO)[C@@H](O)[C@H](O)[C@H]2O)[C@H](O)[C@H]1O)CO[C@@H]1O[C@H](CO)[C@@H](O[C@H]2O[C@H](CO)[C@@H](O)[C@H](O)[C@H]2O)[C@H](O)[C@H]1O [MNG-3]
stability of the R:G complex in detergent (β2AR-365:Gs complex [2]): substantially stabilize the complex; also recorded: stable | stability of the β2AR:Gs complex in detergent at room temperature (β2AR-365:Gs complex [2]; room temperature for 24 hours): without any noticeable degradation | 3H-DHA binding of β2AR after dilution of detergent (unliganded purified β2AR): maintained full ability to bind the radioligand

B1: Nb35: nanobody, SEQ ID NO: 1; binds Gs at the interface of Gα and Gβ subunits (protein, listed as Lama glama)
VHH: QVQLQESGGGLVQPGGSLRLSCAASGFTFSNYKMNWVRQAPGKGLEWVSDISQSGASISYTGSVKGRFTISRDNAKNTLYLQMNSLKPEDTAVYYCARCPAPFTRDCFDVTSTTYAYRGQGTQVTVSSHHHHHHEPEA
protection of the ternary complex from dissociation by GTPγS (β2AR:Gs:BI167107 complex): protects the complex from dissociation by GTPγS; also recorded: insensitive to GTPγS treatment | protection of the ternary complex from dissociation by GTPγS (β2AR:Gs:BI167107 complex; listed as 35): protect the β2AR:Gs:BI167107 complex from dissociation | effect on GTPγS binding to the Gsαβγ heterotrimer [4]: blocks GTPγS binding to the free Gsαβγ heterotrimer in a dose dependent manner; also recorded: inhibits GTPγS binding to the Gsαβγ heterotrimer | effect on GTPγS binding to Gαs alone (purified Gαs): has no effect on GTPγS binding; also recorded: does not affect GTPγS binding to Gαs | binding to the β2AR:Gs:BI167107 ternary complex by analytical gel filtration [5]: further confirmed | epitope on the Gs heterotrimer relative to Nb37 (size exclusion chromatography) [5]: bind separate epitopes | stability of the V2R:Gs:AVP complex with nanobody in SEC ([3]; complex of V2R, Gs, Nb35 and AVP): demonstrated the stability of this complex in SEC

B2: Nb36: nanobody, SEQ ID NO: 3, binds Gs (protein, listed as Lama glama)
VHH: QVQLQESGGGSVQAGGSLRLSCTVSGTIFSVTVMGWYRQAPGKQRELVAGFTNTRNTNYVDSVKGRFTISKDSAKNTMYLQMNSLKPEDTAVYYCNVRRWGGTNWNDYWGQGTQVTVSSHHHHHHEPEA
protection of the ternary complex from dissociation by GTPγS (β2AR:Gs:BI167107 complex): less sensitive to GTPγS treatment | protection of the ternary complex from dissociation by GTPγS (β2AR:Gs:BI167107 complex; listed as 36): protect the β2AR:Gs:BI167107 complex from dissociation | binding to the β2AR:Gs:BI167107 ternary complex by analytical gel filtration [5]: further confirmed | epitope on the Gs heterotrimer relative to Nb37 (size exclusion chromatography) [5]: bind separate epitopes

B3: Nb37: nanobody, SEQ ID NO: 4, binds the Gsα subunit (protein, listed as Lama glama)
VHH: QVQLQESGGGFVQAGGSLRLSCAASGSIFSKNTMAWFRQAPGKERELVAASPTGGSTAYKDSVKGRFTISRDSAKNTVLLQMNVLKPEDTAVYYCHLRQNNRGSWFHYWGQGTQVTVSSHHHHHHEPEA
protection of the ternary complex from dissociation by GTPγS (β2AR:Gs:BI167107 complex): insensitive to GTPγS treatment | protection of the ternary complex from dissociation by GTPγS (β2AR:Gs:BI167107 complex; listed as 37): protect the β2AR:Gs:BI167107 complex from dissociation | effect on GTPγS binding to Gαs alone (purified Gαs): blocks GTPγS binding to Gsα alone in a dose dependent manner; also recorded: inhibits GTPγS binding to Gαs | binding to the β2AR:Gs:BI167107 ternary complex by analytical gel filtration [5]: further confirmed
